# Data reported in patent US20240383978A1 (NOVAROCK BIOTHERAPEUTICS, published 2024).
# T1: human Nectin-4 (human, UniProt Q96NY8 32-510)
# T1 construct: Expressed on CHO cells; also called CHO-Nectin 4
# T1 sequence: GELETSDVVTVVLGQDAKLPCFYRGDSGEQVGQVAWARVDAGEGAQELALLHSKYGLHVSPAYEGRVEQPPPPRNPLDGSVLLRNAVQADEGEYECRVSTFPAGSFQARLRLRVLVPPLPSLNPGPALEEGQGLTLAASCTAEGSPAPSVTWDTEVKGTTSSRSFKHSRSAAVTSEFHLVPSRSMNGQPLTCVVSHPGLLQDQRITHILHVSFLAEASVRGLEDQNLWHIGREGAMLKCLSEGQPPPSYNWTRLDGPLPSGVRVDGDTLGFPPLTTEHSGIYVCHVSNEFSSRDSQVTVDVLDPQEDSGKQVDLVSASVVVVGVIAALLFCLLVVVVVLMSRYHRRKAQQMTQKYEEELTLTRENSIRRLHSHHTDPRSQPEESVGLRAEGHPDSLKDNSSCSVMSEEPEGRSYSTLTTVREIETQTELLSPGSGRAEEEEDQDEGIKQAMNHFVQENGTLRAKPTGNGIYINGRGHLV
# B1: 1925Ab1 (bispecific antibody, human IgG1, kappa, L234A L235A)
# heavy: not shown
# light: DIQMTQSPSSLSASVGDRVTITCKASQSVNNDVAWYQQKPGKAPKLLIYYASNRDTGVPSRFSGSGSGTDFTLTISSLQPEDFATYYCQQDYSSPYTFGQGTKLEIKRTVAAPSVFIFPPSDEQLKSGTASVVCLLNNFYPREAKVQWKVDNALQSGNSQESVTEQDSKDSTYSLSSTLTLSKADYEKHKVYACEVTHQGLSSPVTKSFNRGEC
# B2: 1925Ab3 (bispecific antibody, human IgG1, kappa, L234A L235A)
# heavy: not shown
# light: DIQMTQSPSSLSASVGDRVTITCKASQSVNNDVAWYQQKPGKAPKLLIYYASNRDTGVPSRFSGSGSGTDFTLTISSLQPEDFATYYCQQDYSSPYTFGQGTKLEIKRTVAAPSVFIFPPSDEQLKSGTASVVCLLNNFYPREAKVQWKVDNALQSGNSQESVTEQDSKDSTYSLSSTLTLSKADYEKHKVYACEVTHQGLSSPVTKSFNRGEC
# B3: 1912Ab4 (bispecific antibody)
# heavy: not shown
# light: AIQLTQSPSSLSASVGDRVTITCRASQGINSWLAWYQQKPEKAPKSLIYAASSLQSGVPSRFSGSGSGTDFTLTISSLQPEDFATYYCQQYNFYPYTFGQGTKLEIIRTVAAPSVFIFPPSDEQLKSGTASVVCLLNNFYPREAKVQWKVDNALQSGNSQESVTEQDSKDSTYSLSSTLTLSKADYEKHKVYACEVTHQGLSSPVTKSFNRGEC
# B4: 1912Ab3 (bispecific antibody, human IgG1, kappa, L234A L235A)
# heavy: not shown
# light: DIQLTQSPSFLSASVGDRVTITCRASQGISSYLAWYQQKPGKAPKLLIYAASTLQSGVPSRFSGSGSGTEFTLAVSSLQPEDFATYYCQQLNSYPYTFGQGTKLEIKRTVAAPSVFIFPPSDEQLKSGTASVVCLLNNFYPREAKVQWKVDNALQSGNSQESVTEQDSKDSTYSLSSTLTLSKADYEKHKVYACEVTHQGLSSPVTKSFNRGEC
# B5: 1901Ab3 (bispecific antibody, human IgG1, kappa, L234A L235A)
# heavy: not shown
# light: DIQLTQSPSFLSASVGDRVPITCRASQGISNFLAWYQQKPGKAPELLIHSASTLQSGVPSRFSGSGSGTEFTLTISNLQPQDFATYYCQQVNSYPLTFGGGTKVEIKRTVAAPSVFIFPPSDEQLKSGTASVVCLLNNFYPREAKVQWKVDNALQSGNSQESVTEQDSKDSTYSLSSTLTLSKADYEKHKVYACEVTHQGLSSPVTKSFNRGECGGGGSGGGGSGGGGSQVQLVESGGGVVQPGRSLRLSCAASGFTFSNYGMHWVRQAPGKCLEWVAIIWYDGINKYYADSVKGRFTISRDNSKNTLYLQMNSLKAEDTAVYYCARDQDYDILTGYYKEDYFDFWGQGTLVTVSSGGGGSGGGGSGGGGSGGGGSSYELTQPPSVSVSPGQTARITCSGDALPKKYAYWYQQKSGQAPVLVIYEDSKRPSGIPERFSGSSSGTMATLTISGAQVEDEADYYCYSTDSSGNRVFGCGTKLTVL
# B6: 1925Ab4 (antibody, human IgG1, kappa, V domains shown)
# VH: QVQLQQSGPELVKPGASVRISCKASGYTFTTYYIHWVKQRPGQGLEWIGWIYPGNVNTKYTENFKDKATLTADKSSSTAYMQLSSLTSEDSAVYFCARGLYYFDFWGQGTTLTVSS
# VL: SIVMTQTPKFLLVSAGDRVTITCKASQSVNNDVAWYQQKPGQSPKLLIYYASNRDTGVPDRFTGSGFGTDFTFTISSVQAEDLAVYFCQQDYSSPYTFGGGTKLEIKR
# notes: Parental murine anti-Nectin-4 antibody; also called parental murine monoclonal antibody; monospecific anti-Nectin-4 control antibody
# B7: 1901Ab2 (bispecific antibody, human IgG1, kappa, L234A L235A)
# heavy: not shown
# light: DIQLTQSPSFLSASVGDRVPITCRASQGISNFLAWYQQKPGKAPELLIHSASTLQSGVPSRFSGSGSGTEFTLTISNLQPQDFATYYCQQVNSYPLTFGGGTKVEIKRTVAAPSVFIFPPSDEQLKSGTASVVCLLNNFYPREAKVQWKVDNALQSGNSQESVTEQDSKDSTYSLSSTLTLSKADYEKHKVYACEVTHQGLSSPVTKSFNRGEC
# B8: 1925Ab2 (bispecific antibody, human IgG1, kappa)
# heavy: not shown
# light: DIQMTQSPSSLSASVGDRVTITCKASQSVNNDVAWYQQKPGKAPKLLIYYASNRDTGVPSRFSGSGSGTDFTLTISSLQPEDFATYYCQQDYSSPYTFGQGTKLEIKRTVAAPSVFIFPPSDEQLKSGTASVVCLLNNFYPREAKVQWKVDNALQSGNSQESVTEQDSKDSTYSLSSTLTLSKADYEKHKVYACEVTHQGLSSPVTKSFNRGECGGGGSGGGGSGGGGSQVQLVESGGGVVQPGRSLRLSCAASGFTFSNYGMHWVRQAPGKCLEWVAIIWYDGINKYYADSVKGRFTISRDNSKNTLYLQMNSLKAEDTAVYYCARDQDYDILTGYYKEDYFDFWGQGTLVTVSSGGGGSGGGGSGGGGSGGGGSSYELTQPPSVSVSPGQTARITCSGDALPKKYAYWYQQKSGQAPVLVIYEDSKRPSGIPERFSGSSSGTMATLTISGAQVEDEADYYCYSTDSSGNRVFGCGTKLTVL
# What was measured:
# [1] = target: human CD137 on the cell surface (human, UniProt Q07011 24-255); assay: cell-based or functional assay
# human CD137 on the cell surface, sequence (Q07011 24-255): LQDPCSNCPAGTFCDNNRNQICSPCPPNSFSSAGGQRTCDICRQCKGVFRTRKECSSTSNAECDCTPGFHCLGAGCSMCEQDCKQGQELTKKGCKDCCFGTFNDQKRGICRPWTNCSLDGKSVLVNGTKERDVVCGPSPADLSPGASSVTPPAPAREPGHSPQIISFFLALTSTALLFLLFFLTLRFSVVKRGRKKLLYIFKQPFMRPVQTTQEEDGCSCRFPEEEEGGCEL
# human Nectin-4 = target: T1, human Nectin-4; assay: immunofluorescence cell binding, CHO cells expressing human Nectin 4, 10 µg/ml per the text
# Experimental: Bispecific Nectin-4/CD137 binding proteins were generated, produced, and purified as described in Example 4. To examine the binding activity of the BsAbs 1925Ab1, 1925Ab2 and 1925Ab3 to Nectin 4, CHO cells expressing human Nectin 4 were used in an immunofluorescence binding assay. The cells were cultured in F12K media with 10% FBS. On the day of the experiment, the cells were collected, washed, and stained with the binding proteins at 4° C. for 2 hours, followed by fixing cells with paraformaldehyde for 15 minutes at room temperature. The disclosed antibodies 1925Ab1, 1925Ab2 and 1925Ab3 are bispecific antibodies that bind to both Nectin-4 and CD137. Monospecific antibody 1925Ab4 (parental murine antibody) only binds to Nectin-4 and is used as a control antibody. The fixed cells were then washed with PBS three times, followed by staining the cells at room temperature for 1 hour with Alexa Fluor® 488 Goat Anti-Human IgG antibody (Invitrogen, Cat #: A-11013) for detection. The binding signal was assessed by quantifying the fluorescence intensity using iQue Screener PLUS (Sartorius, MI).
binder,measurement,setting,value
B1,"EC50 of CD137 signaling (NFKB-luc, Jurkat reporter cells with target cells)",[1],0.027 nM
B2,"EC50 of CD137 signaling (NFKB-luc, Jurkat reporter cells with target cells)",[1],0.049 nM
B3,"EC50 of CD137 signaling (NFKB-Luc, Jurkat reporter cells co-cultured with NEC8 WT cells)",[1],0.18 nM
B4,"EC50 of CD137 signaling (NFKB-Luc, Jurkat reporter cells co-cultured with NEC8 WT cells)",[1],0.2 nM
B5,"EC50 of CD137 signaling (NFKB-luc, Jurkat reporter cells co-cultured with NUGC4 cells)",[1],0.1 nM
B6,binding result,human Nectin-4,binds
B7,"EC50 of CD137 signaling (NFKB-luc, Jurkat reporter cells co-cultured with NUGC4 cells)",[1],0.047 nM
B8,"EC50 of CD137 signaling (NFKB-luc, Jurkat reporter cells with target cells)",[1],0.08 nM
